{"source": "patent US7282556", "about": "(EMORY UNIVERSITY, dated 2007)", "binders": {"B1": {"name": "linear CD47 peptide comprising EVTELTREG (aa115-123 of SEQ ID NO: 9) (peptide)", "peptide": "EVTELTREG"}, "B2": {"name": "synthetic peptide C5/D5.1 (CERVIGTGWVRC) (peptide)", "peptide": "CERVIGTGWVRC", "modifications": "disulfide 1-12 (inferred)"}, "B3": {"name": "linear CD47 peptide comprising SSAKIEVSQLLK (aa82-93 of SEQ ID NO: 9) (peptide)", "peptide": "SSAKIEVSQLLK"}, "B4": {"name": "JAM-AP: extracellular domain of junctional adhesion molecule (JAM) fused to alkaline phosphatase (other, UniProt Q9Y624 28-238, looked up)", "chain": "SVTVHSSEPEVRIPENNPVKLSCAYSGFSSPRVEWKFDQGDTTRLVCYNNKITASYEDRVTFLPTGITFKSVTREDTGTYTCMVSEEGGNSYGEVKVKLIVLVPPSKPTVNIPSSATIGNRAVLTCSEQDGSPPSEYTWFKDGIVMPTNPKSTRAFSNSSYVLNPTTGELVFDPLSASDTGEYSCEARNGYGTPMTSNAVRMEAVERNVGV", "notes": "extracellular domain; Control AP fusion protein; not shown: alkaline phosphatase (as in CD47-AP)"}}, "key": {"[1]": {"molecular_target": "T1, SIRPα1-GST: extracellular domain of SIRPα1 fused to GST (UniProt P78324 31-373)", "T1 construct": "extracellular domain; Produced in 293E cells as in Seiffert et al; also called SIRPα-GST; SIRP-GST; not shown: glutathione S-transferase (GST)", "T1 sequence (P78324 31-373)": "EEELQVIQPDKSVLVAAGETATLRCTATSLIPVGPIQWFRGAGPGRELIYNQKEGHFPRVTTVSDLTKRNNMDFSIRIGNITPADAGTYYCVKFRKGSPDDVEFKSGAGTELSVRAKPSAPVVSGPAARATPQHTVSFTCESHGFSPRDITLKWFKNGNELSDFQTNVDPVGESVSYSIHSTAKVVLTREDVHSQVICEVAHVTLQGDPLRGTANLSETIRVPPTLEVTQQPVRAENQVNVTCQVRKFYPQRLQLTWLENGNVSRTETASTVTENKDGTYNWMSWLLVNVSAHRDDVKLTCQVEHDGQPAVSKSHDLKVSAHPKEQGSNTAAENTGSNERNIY", "experiment": "direct binding of synthetic peptide"}, "C5/D5 Fab": {"molecular_target": "T2, C5/D5 Fab", "T2 construct": "Prepared by papain digestion of C5/D5; also called C5/D5 Fab fragment", "experiment": "competition ELISA: C5/D5 Fab (1 µg/ml) on coated purified CD47 with increasing peptide", "experimental": "Figure 5: FIG. 5 is a graph that illustrates the effect of synthetic peptide C5/D5.1 ([…]) (SEQ. ID NO: 2) and control peptide C5/D5.4 ([…]) (SEQ. ID NO: 34), C5/D5.11 ([…]) (SEQ. ID NO: 36) and C5/D5.12 ([…]) (SEQ. ID NO: 6) on binding of C5/D5 Fab to CD47. CD47 was purified from human PMN or RBC as previously described (Liu, et al., Journal of Biological Chemistry, 277(12): 10028-36, 2002). The experiments were performed by coating microtiter plates with purified CD47 (in 1% octylglucoside containing buffer, used as 1:50 dilution) for 2 hour (hr). After blocking, C5/D5 Fab (1 µg/ml) was added without or with increasing amount of peptides. C5/D5 Fab binding was detected by a peroxidase conjugated goat anti-mouse secondary antibody. The data represent the mean and the standard deviation of triplicate wells.\nTo confirm that peptide C5/D5.1 simulates the natural epitope of CD47 recognized by mAb C5/D5, experiments were performed to test if this peptide can compete with CD47 in binding to C5/D5. Purified human CD47 from PMN and RBC was used to coat microtiter plates followed by incubation with C5/D5 Fab (1 μg/ml) either in the absence or presence of increasing amount C5/D5.1 or other control peptides. […] In contrast, control peptides, including C5/D5.11 (SEQ ID NO:36) and C5/D5.12 (SEQ ID NO:6) had no inhibition at concentrations up to 10 mM (FIG. 5). […]"}, "[2]": {"molecular_target": "T1, SIRPα1-GST: extracellular domain of …", "experiment": "plate binding assay, JAM-AP and SIRPα-GST"}}, "note": "Bridges are numbered along the chain shown (N, C = ends). Where no end group is shown, it is not given here."}
{"binder": "B1", "values": [{"measurement": "binding result", "setting": "[1]", "value": "no binding"}]}
{"binder": "B2", "values": [{"measurement": "IC50", "setting": "C5/D5 Fab", "value": 3.8, "unit": "mM"}]}
{"binder": "B3", "values": [{"measurement": "binding result", "setting": "[1]", "value": "no binding"}]}
{"binder": "B4", "values": [{"measurement": "binding result", "setting": "[2]", "value": "no binding"}]}
